± gives the half width of the 95% confidence interval.
Key:
[1] = folding stability dG unfold from trypsin proteolysis; higher = more stable
How it was run: (§1)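 Designed mini-proteins (under 80 residues, no cysteine) in a PA-tagged cDNA display construct were digested with trypsin and chymotrypsin. Each protease was used at 11 concentrations (threefold dilutions) plus a no-protease condition, followed by sequencing. K50 was inferred by Bayesian fitting of sequencing counts, and unfolding free energy was derived against a sequence-predicted unfolded-state K50 and a shared folded-state K50, per protease or combined. Only designs with AlphaFold2 dimer inter-PAE above 15 were kept.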

[2] = folding stability dG unfold from chymotrypsin proteolysis; higher = more stable
How it was run: as §1

[3] = folding stability dG unfold (combined trypsin and chymotrypsin); higher = more stable
How it was run: as §1

Row | Sequence | folding stability dG unfold [1] [kcal/mol] | folding stability dG unfold [2] [kcal/mol] | folding stability dG unfold [3] [kcal/mol]
1 | SAGMLPPEETVTLTLTFPASSPLSLEEILARTPDVEVLSLKREALPDDTVRLTITVRPDHVARVRAALASAG [r5_554_JUSTAS] | 3.37 ± 0.054 | 4.63 ± 0.06 | 4.32 ± 0.09
2 | SAGGSAGGSAGGSMIVLNVPREVAEKIKEELIKKGIDPEKVKVIYIEVPLPEEPPESILSAGGSAGGSAGGS [r10_602_JUSTAS] | 0.798 ± 0.067 | 0.351 ± 0.099 | 0.548 ± 0.16
3 | SAGGGSMVFVEFPQGGKTVRVDVDLEKGVLRVRFPGEGAVLEYPVRDPEAVVRELTPADVPVRAYPESAGGS [r8_95_JUSTAS] | 0.346 ± 0.078 | 0.405 ± 0.11 | 0.439 ± 0.072
4 | SEWVSFMFPFKFEPDDGKIRIKIKMKAPDGEPLGEHEHPVRRDGDKVEVMQMITFPLPKGAQLDKIEIEPSA [r9_292_TrROS] | 0.778 ± 0.26 | 1.11 ± 0.34 | 0.922 ± 0.24
5 | SAGWRMTIWVQYELPPGMPPERAKEAVRDIIRDIMRRFGLPMPPGMKIDIEPVEPSNDYVYYKVTIEFPSAG [r14_735_TrROS] | 4.37 ± 0.26 | 5.52 ± 0.15 | 5.22 ± 0.33
6 | SAGGSAGGSAGGSKYVVIRVKKSVDELKDALKKAGFKVKIVSVYYDKENKEIYVVVKIESAGGSAGGSAGGS [r4_315_TrROS_Hall] | 3.7 ± 0.15 | 4.45 ± 0.14 | 4.16 ± 0.17
7 | SAGSSLPPSLSKEEIVAALKSQGYTSVKEEKLPDPNKSRMVFTHPNSVVTVEFFPNSVTVTTVPLSVPSSAG [r5_899_JUSTAS] | 0.0126 ± 0.28 | 1.32 ± 0.16 | 0.968 ± 0.23
8 | SAGGSAGGGRRLLIEADSEELRELLEALPPEELKNVRVYGPGGVEFPAGEIEKYKYGPLLIEVPSAGGSAGG [r6_428_TrMRF] | 0.174 ± 0.099 | 0.756 ± 0.18 | 0.669 ± 0.1
9 | SAGAAPVGARLVKVEPLPGDGPFVLVEVTPPDGKPGFILVPWEFFESGYLKNATAADIAKRFPFAKPASAGG [r19_74_TrMRF] | 0.513 ± 0.019 | 1.85 ± 0.028 | 1.49 ± 0.056
10 | SAGGKILVPLEVLKEIEEAGLVDEVVENPDGPASLTVTSSKPAKLFGKPVIGFVRRGPDGKPVVEIIPSAGG [r13_163_TrMRF] | -0.215 ± 0.091 | 0.0505 ± 0.13 | 0.000122 ± 0.099
11 | SAGMPGKVVTVTVPVPPELTRLTVTATAPDGSSSTFTLPPGVATTVTFTSPSSSDLSVTVTFPDGSTTGSAG [r5_664_JUSTAS] | 0.849 ± 0.017 | 1.16 ± 0.052 | 1.07 ± 0.05
12 | SAGGSAGGSAGNKKAEEIKKILEEKGFEVVSVKVYKPKGNKPVVKIEVKAKNGKKFTILASAGGSAGGSAGG [r11_780_TrMRF] | 2.96 ± 0.2 | 3.28 ± 0.039 | 3.22 ± 0.2
13 | SAGGSAGGSMTSVTTLVETETLTNGNTIVPQLVQITVTLEVPAVPPEEIKPKPAPGDRWTYYSSAGGSAGGS [r12_1031_JUSTAS] | 1.01 ± 0.073 | 1.1 ± 0.16 | 1.12 ± 0.18
14 | SPFRLKIEIDEVGPAGQEIRVKLEIWSDNKPIEMEHTIKVPNGRLYRIRMNIYMPPDGNFQLNLDVYPLDSA [r9_255_TrROS] | 4.29 ± 0.23 | 6.34 ± 0.37 | > 6
15 | SAGGSAKSLTLTVEITLPDGSTVRIEAEIEEKDGYLVIKVTIYNEDGEKVAEFTLVLKLPPPPPEPSAGGSA [r15_263_TrROS_Hall] | 2.84 ± 0.47 | 4.42 ± 0.2 | 3.76 ± 0.66
16 | SAGKKIKIVKVEVTYDPETKEVTVKITIYNENGEKIKEIELTYEPGMSEEEVREKAEALVRKLIEEGKLSAG [r5_238_TrROS_Hall] | 2.75 ± 0.15 | 2.24 ± 0.05 | 2.54 ± 0.1
17 | SAELTIEITVPPGKSVEEVLAEAKALAEELGLEIVEVRVERDENGEVRVTVVIKLPEELTEEQRKALLESAG [r14_110_TrROS_Hall] | 3.06 ± 0.17 | 2.89 ± 0.13 | 3.02 ± 0.21
18 | SAGGSAGGSAKTIKVLVRDKETGEVFEVEAEIVEFDEETGELLIKVRLPNGKTLTLSAEELLSAGGSAGGSA [r18_334_TrROS_Hall] | 2.54 ± 0.098 | 4.12 ± 0.1 | 3.71 ± 0.21
19 | SAGGKKKVTIEIVYDPEEDYVLIRIRIKDPNGNEREITIRMSRDEIKKLLEELKGKITSIEVRRLPPSAGGS [r16_298_TrROS_Hall] | 3.02 ± 0.1 | 3.12 ± 0.059 | 3.14 ± 0.12
20 | SAGGSAGGSAGKIEVTYNKENNTFTVKIVNKKTKKVITIKVKAKSKEDALKKVKELLEKLSAGGSAGGSAGG [r17_386_TrROS_Hall] | 2.79 ± 0.17 | 3.32 ± 0.078 | 3.11 ± 0.19
21 | SAGGSAMEIVAVEKGDNTVTLLLRDPETGELYTATFHFIPGSKTVHATVTFPDGSTATFTFDATALSAGGSA [r15_1055_TrMRF] | 2.82 ± 0.09 | 4.32 ± 0.068 | 4.01 ± 0.12

Row | Sequence | folding stability dG unfold [1] [kcal/mol] | folding stability dG unfold [2] [kcal/mol] | folding stability dG unfold [3] [kcal/mol]
22 | SAGGSAGGSAGGSEKKITVYKDKNGNYLVVIEKGDKPIVIPFPKGASLKEALDIIDKLDSAGGSAGGSAGGS [r4_7_TrMRF] | 1.95 ± 0.095 | 2.64 ± 0.051 | 2.41 ± 0.14
23 | SSPSSVPDAVVQALKEAHPDVVSIEVTPLPPESTRISVTLKSGSGSSTVSFSIPSPEGVTRTYTVSVSNPSA [r9_678_JUSTAS] | 0.839 ± 0.063 | 1.18 ± 0.091 | 1.04 ± 0.064
24 | SAMDFKAEKVEILKVEKLKDGTVKITVKVEVGKYVLNAEIPYGKDGKIEKIEAEIDLENNFMTYKVTVGSAG [r14_189_TrMRF] | 1.58 ± 0.19 | 2.24 ± 0.13 | 1.97 ± 0.33
25 | SKKVEVKEIEIKLADGSKVKAKIVKLPDGTYRIFVEFPDGRVAVFEIDVNGKIVKVKPLEVFSLEELKKKSA [r9_1075_TrROS_Hall] | 1.07 ± 0.12 | 0.836 ± 0.47 | 1.17 ± 0.22
26 | SAGGSMYLIRITVRNKDGEEVLTIERRVRLEDGKSLEEVAEELRRALESLPNLEVVDVEVVPLEELSAGGSA [r2_192_TrROS_Hall] | 4.3 ± 0.072 | 3.797 ± 0.019 | 3.99 ± 0.058
27 | SAGGMKVEIIRKDGKKVTLEGMTLEELLALLPEGEEYVIKVEVTVVDEKTKKKETVELTFTVPVEDLSAGGS [r16_806_TrROS_Hall] | 1.18 ± 0.047 | 2.47 ± 0.053 | 2.04 ± 0.075
28 | SAEPPWYWIIKIEFPNGKPIVFMMDDPEEARERFEEKLRKEFPDGMKIESIPITPNDMDSPEEALERIKSAG [r14_900_TrROS] | 1.8 ± 0.27 | 1.62 ± 0.16 | 1.75 ± 0.48
29 | SAGGSAGGMTITISTGSSGLTVNITLTPPTGPPVTVTISFDPSELEEFLKELPDYEIESITVEGSAGGSAGG [r6_879_JUSTAS] | 2.79 ± 0.17 | 2.73 ± 0.15 | 2.8 ± 0.13
30 | SAGGSAGGSAGGSMEITVETYPEVPLVRFTLPGGELVLLPVPPDVPEEEIRALAEALLASAGGSAGGSAGGS [r10_33_JUSTAS] | 0.897 ± 0.025 | 0.833 ± 0.15 | 0.874 ± 0.12
31 | SAGGSAGGSAGGSMVKILIEKENELYEIYVPKDEIPLDELVKKAKELFPDIVKIEVFDDSAGGSAGGSAGGS [r4_235_TrMRF] | 0.802 ± 0.039 | 1.1 ± 0.03 | 0.966 ± 0.096
32 | SMEEELPPKVTEVVVKVPLSPDASPEEIAAARALAAELAAALEAAGYRDVEVTVEPTEPGALVIRARVVVSA [r9_865_JUSTAS] | 2.79 ± 0.036 | 4.36 ± 0.057 | 3.908 ± 0.034
33 | SAGGKIRIDVQYNKNEGYITIRIRFNGNTREIPIPSPKQSPEDVREEAEEIAKYLQEEYNIKEVEIWSAGGS [r16_249_TrROS] | 2 ± 0.068 | 2.34 ± 0.11 | 2.36 ± 0.16
34 | SAGGSAGGSASPIHATVSVDPETGTYTVHYPDGSTKTITGLSPEEVAALAKEMGIDEITLESAGGSAGGSAG [r3_78_JUSTAS] | 3 ± 0.08 | 2.64 ± 0.034 | 2.81 ± 0.044
35 | SAGGSAGGSAGGVAVPKEGIEEFISQLPPDTVVTLYDPETGKDIKVTVSNGKVTISPEGSAGGSAGGSAGGS [r10_137_JUSTAS] | 1.29 ± 0.12 | 1.02 ± 0.12 | 1.17 ± 0.12
36 | SAMKKVEIEIEVVEVDGELYILIKIKAETPEEVKEAAEKLLKELGLPPEAEVEVVEKDGEVYILIRLKPSAG [r14_804_TrROS_Hall] | 3.08 ± 0.082 | 4.53 ± 0.05 | 4.17 ± 0.13
37 | SAGGMPPENPAVVKVLAQKQKFEDLVKELKEKGIEAKLEKIEVVPETGKVTVTIKLPDGKEIVITIESAGGS [r8_277_JUSTAS] | 1.62 ± 0.11 | 1.16 ± 0.064 | 1.33 ± 0.21
38 | SAGGAEEKIREIAEKLGVKEVLSADEAEKLPPEYPKRIAVVPRPDGSVLVIVRLENGEVLVIEFPVDSAGGS [r16_686_TrMRF] | 1.45 ± 0.044 | 2.49 ± 0.035 | 2.15 ± 0.086
39 | SGPGPEKIKEIIKKLFPNLKIESIEEDPATGKYTIKFPNGYTVEVEVPPDGTVTLTVKTPNSTTTFTVPESA [r9_304_JUSTAS] | 2.15 ± 0.086 | 2.32 ± 0.031 | 2.26 ± 0.063
40 | SAGGTMIELKSASGKTALLPLPPGTERVEREGDKWTIYLPPEYTLTVEITAPVPPSSLFDLKVLSRKLSAGG [r19_274_JUSTAS] | 0.595 ± 0.077 | 0.509 ± 0.35 | 0.734 ± 0.31
41 | SAGGSAKEIKVEITYDPETNTITIKVYKDGKLVAEMTMKIEVNGKLIEVKVTLYLDPKTKKLVVKPSAGGSA [r15_770_TrROS_Hall] | 1.94 ± 0.081 | 3.3 ± 0.048 | 2.96 ± 0.13
42 | SAGGSAGGSAGGDPNWVTVTIMIKVPPGDKPIEIEIPNGIKVEYYPFPDDGYLIFKITVRSAGGSAGGSAGG [r7_796_TrROS] | 2.78 ± 0.16 | 3.11 ± 0.16 | 3.02 ± 0.23
